Source: the nanobody polyreactivity screen of Harvey et al. (2022)

Assay: yeast display, Sf9 membrane polyspecificity reagent, FACS + sequencing; frameworks hold sequencing errors
In short: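 A nanobody's polyreactivity label depends on the gate it was sorted from. Yeast display cells were stained with 10% biotinylated, detergent-solubilized Sf9 membrane reagent for 1 hour at 4 °C, enriched on streptavidin microbeads and sorted by FACS. The low and high (top ~1%) gates were set on anti-HA fluorescence for expression and streptavidin fluorescence for reagent binding.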

Sequence	polyreactivity (PSR sort gate)
QVQRVESGGGLVQAGGSLRLSCAASGRIFPTNAMGWYRQAPGKERELVAAIPVSGGSTYYADSVKGRFTISRDNAKNTVYLQMNSLKPEDTAVYYCAADSSTYRFDYWGQGTQVTVSS	low polyreactivity
QVQRVESGGGLVQAGGSLRLSCAASGRNSQFYDMGWYRQAPGKERELVATISGGASTNYADSVKGRFTISRDNAKNTVYLQMNSLKPEDTAVYYCARAGRSWDTLYKYYLEHDYWGQGTQVTVSS	low polyreactivity
QVQRVESGGGLVQAGGSLRLSCAASGRTFFGYAMGWYRQAPGKERELVAAITSGGSTNYADSVKGRFTISRDNAKNTVYLQMNSLKPEDTAVYYCAASEDGSVSYESTYPEYDYWGQGTQVTVSS	low polyreactivity
QVQRVESGGGLVQAGGSLRLSCAASGRTFNHYAMGWYRAAPGKERELVAAISRSGGTTYYADSVKGRFTISRENAKNTVYLQMNSLKPEDTAVYYCAARWWYRYNYDFWGQGTQVTVSS	high polyreactivity
QVQRVESGGGLVQAGGSLRLSCAASGRTFYPNAMGWSRQAPGKERELVADITYSGASTYYADSVKGRFTISRDNAKNTVYLQMNSMKPEDTAVYYCAKVYGQMVSGGYVTRYDFWGQGTQVTVSS	low polyreactivity
QVQRVESGGGLVQAGGSLRLSCAASGRTLARNAMGWYRQAPGKERELVASINGRTTRTYYADSVKGRFTISRDNAKNTVYLQMNSLKPEDTAVYYCAVKDRYSFRYDYWGQGTQVTVSS	high polyreactivity
QVQRVESGGGLVQAGGSLRLSCAASGSIFEPYAMGCYRQAPGKESELVATAITYSGGSTYYADSVKGRFTISRDNAKNTVYLQMNSLKPEDTAVYYCAADDLGDGVYKLDYWGLGTQVTVSS	low polyreactivity
QVQRVESGGGLVQAGGSLRLSCAASGSIFGYYAMGWSRQAPVKERELVAAITRSCGSTYYADSVKGRFTISRDNAKTTVYLQMNSLKPEDTAVYYCNAVRYAVRLPAFPGYDYLGQGTQVTVSS	high polyreactivity
QVQRVESGGGLVQAGGSLRLSCAASGSTFGIYDMGWYRQSPGKEMELVARITYSGGSRYYADSVKGRFTISRDNAKNTVYLQMNSLKPEDTAVYYCAARSWPHYFRYDYWGQGTQVTVSS	high polyreactivity
QVQRVESGGGLVQAGGSLRLSCAASGSTFTWNVMGWYRQAPGKERELVASITSGDSTYADSVKGRFTISRDNAKNTVYLQMNSLKPEDTAVYYCNVGYDQEKYGYWGQGTQVTVSS	low polyreactivity
QVQRVESGGGLVQAGGSLRLSCAASGSTFYRYAMVWYRQAPGKERELVATISGGGRTNYADSVKGRFTISRDNAKNTVYLQMNSLKPEDTAVYYCAVDSSSPYDYWGQGTQVTVSS	high polyreactivity
QVQRVESGGGLVQAGGSLRLSCAASGSTLRKYVMGWYRQAPGKERELVAAISSSGGRTYYADSVKGRFTISRDNAKYTVYLQMNSLKPEDTAVYYCAATRYIPGFYYWGQGTQVTVSS	high polyreactivity
QVQRVESGGGLVQAGGSLRLSCAASGYTFLRYAKGSYRQAPGKERELVAAISRRGGRTYYADSVKGRFTISRDNAKNTVYLQMNSLKPEDTAVYYCAAVNSTQTIGLMDYWGQGTQVTVSS	high polyreactivity
QVQRVESGGGLVQAGGSLRLSCAATGLIFSPYAMGWYRQAPGKEREFVAGITWRGGNTYYADSVKGRFTISRDNAKNTVYLQMNSLNPEDTAVYYCAAYERKFYTVSRWYKLDYWGQGTQVTVSS	high polyreactivity
QVQRVESGGGLVQAGGSLRLSCADSGTYGSYAMGWYRQAPGTEREFVAAISASGGSTYYADSVKGRFTISRDNAKNTVYLQMNSLKPEDTAVYYCNKSPRRNRQYDYWGQGSQVTVSS	high polyreactivity
QVQRVESGGGLVQAGGSLRLSCSASGFIFQLSAMGWYRQAPGTERELVAAITWRGGSTYYADSVKGRFTISRDNAKNTVYLQMYSLKPEDTAVYYCAASASWRGQRVPYGYWGQGTQVTVSS	high polyreactivity
QVQRVESGGGLVQAGGSLRLSFAASGSTDGRYARGWYSQAPVQDTELVAAITRNGGRTYYADSVKGCFTISRDNAKNTVYLQMNSLKPEHTADEYCAASGRSQYGDYDDWGQGSQVTVSS	high polyreactivity
QVQRVESGGGLVQAGGSVRLSCPASGSIFWSYAMGWYRQAPGKERELVAVINWSGGSTYYADSVKGRFTISRDNAKNTVYLQMNSLNPEDTAVYYCNKDLGPTKRPFTFDYSGQGTQVTVSS	low polyreactivity
QVQRVESGGRLVQAGGSLRLSCAASGRTFWAYAMGWYRQAPGKERELVAAITTSGGSTNYADSVKGRFTISRDNAKNTVYLQMNSLKPEDTAVDYCNADPTYHVVNGVGYWGQGTQVTVSS	low polyreactivity
QVQRVESRGGLVQAGGSLRLTCAASGRTFWRYVMGWYRQAPGKERELVATISSGGSTNYAYSVKGRFTISRDNAKNTVYLQMNSLKPEDTAVYYSAAYIYDGVWVYPYYPYDYWGQGTQVTVSS	low polyreactivity
QVQSEESGGGLVQAGGSLRLSCAASGLIFDGYSMGWNRQAPGKERELVAAITRSGASTSYADSVKGRFTISRDNAKNTVYLQMNSLKPDDTAVYYCAAKVHTFYYHYYSWGQGTQVTVSS	high polyreactivity
QVQVVESGGGLVKAGGSLRLSCAASGGTFLINAMGWYRQAPGKERELVATITSGGTTYYADSVKGRFTISRDNAKNTVYLQMNSLKPEDTAVYYCATRGKGRYGYDSWGQGTQVTVSS	low polyreactivity

Sequence	polyreactivity (PSR sort gate)
QVQVVESGGGLVKAGGSLRLSCAASGIIFVYYAMGWSRQAPGKERELVAAITSDGGRTYYADSVKGRFTISRDNAKNTVYLQMNSLKPEDTAVYYWAARTLYRGIKGYNYWGQGTQVTVSS	high polyreactivity
QVQVVESGGGLVQAGGSLGLSCAASGRTFGSNAMGWYRQAPGKERELVAAISSTVSTNYADSVKGRFTISSDNANNTVYLQMNSLKPEDTAVYFCNVTRHYSYVSEYDYWGQGTQVTVSS	low polyreactivity
QVQVVESGGGLVQAGGSLRLRCAASGSIIKYYAMGWYREAPGKERELVADISWRGGRTYADSVKGRFTISRDNAKNTVYLQMNCLIPEDTAVYYCAKPSKARGGYDYWGQGTQVTVSS	high polyreactivity
QVQVVESGGGLVQAGGSLRLSCAASGFTFDYYNMGWYRQAPGKERELVAAITSGASTNYADSVKGRFTISRDNAKNTVYLQMNSLKPEDTAVYYCAAVLAGGVYWVVHYDYWGQGTQVSVSS	low polyreactivity
QVQVVESGGGLVQAGGSLRLSCAASGFTFSFNAMGSYRQAPWKERELVAAIDRGVSTYYADSVKGRFTISRDNAKNTVYLQMKSLKPEDTAVSYCAVEYWEPYDMDYWGQGTQVTVSS	high polyreactivity
QVQVVESGGGLVQAGGSLRLSCAASGGTFSPYDMGWYRQAPGKERELVASITRSGGSTYYADSVKGRFTISRGNSKNTVYLQMNSLKPEDTAVYYCAAQGYWTYWPYLLRLYDYWGQGTQVTVSS	low polyreactivity
QVQVVESGGGLVQAGGSLRLSCAASGITFWGYAMGWYRQAPGKERELVAAITRTGSTYYADSVKGRFTISRDNAKNTVYLQMNSLKPEDTALYYCAAYTPNASTYRRKSSKKVYYWGQGTQVTVSS	high polyreactivity
QVQVVESGGGLVQAGGSLRLSCAASGRTFFRNAMGWYRQARGKERELVAAISKRGGSTRYADSVKGRFTISRDQAQNPDYLQMNSLKPEDTAVYYCAAASRLEYSHATLYYWGQGTQVTVSS	high polyreactivity
QVQVVESGGGLVQAGGSLRLSCAASGRTFGGYDMGWYRQAPGKERELVAAISWSGGNTYYADSVKGRFTISRDNAKNTVYLQMNSLKPEDTAVYYCAAGHYVYWYRYQLGRYNYWGQGTQVTVSS	high polyreactivity
QVQVVESGGGLVQAGGSLRLSCAASGRTFYGNAMGWYRQAPGKERELVASITSRGDNTYYADSVKGRFTISRDNAKNTVYFQMNSLKPEDTAVYYCAAGTVYYTYLWMGYWGQGTQVTVSS	low polyreactivity
QVQVVESGGGLVQAGGSLRLSCAASGRTSGNYAMGWYRQAPGKERELVAAIRYSGSSTFYADSVKGRFTISRDNAKHTVYLQMNSLKPEDTAVYYCARDIRRKGFRYDYWGQGTQVTVSS	high polyreactivity
QVQVVESGGGLVQAGGSLRLSCAASGSIFGANTMGWYRPAPGKERELVAAISSGGNTYYADSVKGRFTISRDNAKNTVYLQMNSLKPEDTAVYYCNAQTRYLYQYGYLGGTGYNYWGQGTQVTVSS	low polyreactivity
QVQVVESGGGLVQAGGSLRLSCAASGSIFSSYAMGWYRQAPGKERELVAAITGSGGSTDYADSVKGRFTISRDNAKNTVYLQMNSLKPEDTAVYYCAARRFWPGNSYYYRYYYWGQGTQVTVSS	low polyreactivity
QVQVVESGGGLVQAGGSLRLSCAASGSIFVGYAMGWYRQAPGKEREFVAGITARGGSTYYADSVKGRFTISCDNAKNTVYIPMNSQKPEDSAVYYCAADDGSENDYWGQGTQVTVSS	low polyreactivity
QVQVVESGGGLVQAGGSLRLSCAASGSTFPGNAMGWYRQAPGKERDLVAAITSTGTTYYADSVKGRFTISRDNAKNTVYLQMNSLKPEDTAVYYWNADPSPDPSTFDYWGQGTLVTVSS	low polyreactivity
QVQVVESGGGLVQAGGSLRLSCAASGSTFRYYAMGWYRQAAGKERELVASITVSVGRTYYADSVKGRFTISRDYAKNTVYLQMNILKPEDTAVYYCAAPRGRLVRPPKYYYWGQGTQLTVSS	high polyreactivity
QVQVVESGGGLVQAGGSLRLSCAASGSTFTIYAMGWYRQAPGKERELVALITWSGGSTYYADSVKGRFTISRDNAKNTVYLQMNSLKPEDTAVYYCAADYYRPVPGGYYWGQGTQVTVSS	high polyreactivity
QVQVVESGGGLVQAGGSLRLSCAASGSTFYSNAMGWYSQAAGQERELVAAITWSDGSTYYADSVMGRFTISRDNAKHTVYVQMNSHKPEDTALYYCSATQAEVVWTPVYVEYDYWGQGTQVTVSS	high polyreactivity
QVQVVESGGGLVQAGGSLRLSCAPSGRTFYGNVMGWYRQAPGKERELVAAISSRGSSTRYADSVKGRFTISRDNAKNTVYLQMNRLKPEDTAVYYCAARNEYWGQGTQVTVSS	high polyreactivity
QVQVVESGGGLVQAGGSLRLTCAASGRTFINYAIGRYRQPAAKERELVAAITPGGRTNYADSVKGRFTNSRDNAKYTVYLQMNSVTPEDTAVYYCAADRYYWGRYTLNYWGQGTQVTVSS	low polyreactivity
QVQVVESWGGLVQEAGSLRLSCAASGRTFAHYNMGSYRQAPGKERELVARIDWSCGNTYYADSVKGRFTISRDNAKITVFLQMNRLKPQDTAVYYCAAVPAFYNAWGEDYEYWGQGTHVTVSS	low polyreactivity
